Like-named read-outs stand apart in the source and are kept apart here.
T1: Hera (Thermus thermophilus, UniProt O07897 1-510)
T1 sequence: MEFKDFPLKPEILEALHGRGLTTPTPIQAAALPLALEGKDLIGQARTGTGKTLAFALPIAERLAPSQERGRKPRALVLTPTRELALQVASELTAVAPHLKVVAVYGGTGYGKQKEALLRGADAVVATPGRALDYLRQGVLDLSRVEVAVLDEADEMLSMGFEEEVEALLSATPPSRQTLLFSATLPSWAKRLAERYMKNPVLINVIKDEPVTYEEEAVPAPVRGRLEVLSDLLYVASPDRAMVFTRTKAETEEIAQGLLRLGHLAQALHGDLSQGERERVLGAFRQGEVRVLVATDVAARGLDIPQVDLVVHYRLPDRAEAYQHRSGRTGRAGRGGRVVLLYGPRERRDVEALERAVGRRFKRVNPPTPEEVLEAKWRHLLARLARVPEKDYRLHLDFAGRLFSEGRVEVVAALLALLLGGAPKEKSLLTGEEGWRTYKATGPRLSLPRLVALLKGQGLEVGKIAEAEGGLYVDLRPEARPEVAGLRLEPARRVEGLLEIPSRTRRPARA

B1: tRNAPro (TT_RS01350) (structured_RNA)
RNA: CGGGGCGUAGCGCAGGCCGGUAGCGCACCUGCUUUGGGAGCAGGGGGUCGCCCGUUCAAAUCGGGCCGCCCCGACCA
B2: tRNAPro (TT_RS09670) (structured_RNA)
RNA: CGGGGAGUAGCGCAGCCUGGUAGCGCACACGCUUGGGGUGCGUGGGGUCGUCGGUUCAAAUCCGGCCUCCCCGACCA
B3: tRNASer (TT_RS06780) (structured_RNA)
RNA: GGAGAGGUGGCCGAGUGGUCGAAGGCGGCACCCUGCUAAGGUGUUGCACCGGGAAAACCGGUGCCGCGGGUUCGAAUCCCGCCCUCUCCGCCA
B4: tRNAPro (TT_RS02830) (structured_RNA)
RNA: CGGGGAGUAGCGCAGCCCGGUAGCGCACCUCGUUCGGGACGAGGGGGUCGCUGGUUCAAAUCCAGUCUCCCCGACCA
B5: tRNATyr (TT_RS08805) (structured_RNA)
RNA: GGGCAGGUGCCCGAGCGGCCAAAGGGGACGGUCUGUAAAACCGUUGGCGUAUGCCUUCGCUGGUUCGAAUCCAGCCCUGCCCACCA
B6: tRNAGly (TT_RS08190) (structured_RNA)
RNA: GCGGGAGUAGCUCAGUCGGUAGAGCACGACCUUGCCAAGGUCGGGGUCGCGGGUUCAAGUCCCGUCUCCCGCUCCA

Columns and labels:
Assay in all cases: competition
Hera [1] = target: T1, Hera
Hera [2] = target: T1, Hera; remark: listed apart in the source
Hera [3] = target: T1, Hera; remark: listed apart in the source

| Binder | Kd (Hera [1]) [nM] | binding result (Hera [1]) | other results |
| --- | --- | --- | --- |
| B1 | 1400 |  |  |
| UUUGGGGCUGCGGGGCUGGACCCCACGGGCGCCGCCACCC (ssRNA) [RNA 13] |  | binds |  |
| AGGTCCCAA (ssDNA) [9mer DNA] |  | no binding |  |
| B2 | 400 |  |  |
| CUCGUGGCCCUGGCGAGGAGGCUCGUGGAGGAGUAC (ssRNA) [RNA 1640] |  |  | binding result (Hera [2]): no binding |
| B3 | 60 |  |  |
| UAGGGGCGUGUGGGCCCACCCGGCGUGGCGCUGGCUCCACC (ssRNA) [RNA 2] |  | binds |  |
| CUGGCUUGCCCGGGAGAUCCUGGGCUACCCCGA (ssRNA) [RNA 9] |  | binds |  |
| CCUGCACGUUCCCACCGCCUGGGU (ssRNA) [RNA 1654] |  |  | binding result (Hera [3]): no binding |
| AAAAAAAAAAAAAAAAAAAAAAAAAAAAAAAAAAAAAAAAAAAAAAAAAA (ssRNA) [50A] |  | no binding |  |
| B4 | 600 |  |  |
| B5 | 400 |  |  |
| GCCAAGCCGGGCCUGGAC (ssRNA) [RNA 1638] |  |  | binding result (Hera [2]): no binding |
| B6 | 400 |  |  |
| UUUUUUUUUUUUUUUUUUUUUUUUUUUUUUUUUUUUUUUUUUUUUUUUUU (ssRNA) [50U] | 240 ± 50 |  |  |

Source: article PMC7566566
